What is called Kd is the free concentration of one partner at which half of the binding sites on the other are occupied at equilibrium, for simple one-to-one binding. Broadly, the koff is the rate constant with which the complex falls apart. Broadly, the kon is a measure of how fast the partners come together. Broadly, the EC50 is the concentration needed to bring the measured effect to its halfway point. Low values mean greater potency, high ones weaker potency.

The target of experiment [1] is T1, human RAGE-Fc fusion protein (human, UniProt Q15109 23-344).
T1 construct: also called hRAGE-Fc; huRAGE-Fc; not shown: Fc domain of human IgG
The experiment is described as follows: BIACORE direct binding, hRAGE-Fc immobilized. The protocol:
The binding of selected murine and rat anti-RAGE antibodies to human and murine RAGE and to the V domains of human and murine RAGE was analyzed by BIACORE® direct binding assay. […] Solution of the anti-RAGE antibodies at two concentrations, 50 and 100 nm, were run over the immobilized RAGE-Fc proteins in duplicate. BIACORE™ technology utilizes changes in the refractive index at the surface layer upon binding of the anti-RAGE antibodies to the immobilized RAGE antigen. Binding is detected by surface plasmon resonance (SPR) of laser light refracting from the surface.
The kinetic rate constants (kₐ and kd) and association and dissociation constants (Kₐ and Kd) for the binding of murine and rat anti-RAGE antibodies to human and murine RAGE were determined by BIACORE™ direct binding assay. Analysis of the signal kinetics data for on-rate and off-rate allows the discrimination between non-specific and specific interactions.
On the technique in general: In SPR one partner is held on a chip, and binding of the other changes the refractive index at the surface.

Experiment [2] deals with T1, human RAGE-Fc fusion protein. The experiment is described as follows: ligand competition ELISA, panel Blocks hRAGE-Fc interaction with HMGB1; blocked ligand HMGB1. The protocol:
Wells were washed and blocked as described above and exposed to 100 μl of pre-incubated mixtures of RAGE-Fc or TrkB-Fc (a non-specific Fc control), at 0.1 μg/ml, plus various forms of the indicated antibody preparation (dilutions of immune sera, hybridoma supernatants or purified antibodies) for 1 hour at room temperature.
(In general: In an ELISA, binding on a coated surface is turned into a signal by an enzyme label.)

The target is the same in experiment [3]. Nature of the experiment: ligand competition ELISA, panel Blocks hRAGE-Fc interaction with A-beta; blocked ligand amyloid beta 1-42 peptide.
The target in experiment [4] is T2, human RAGE V-region-Fc fusion protein (human, UniProt Q15109 23-118).
T2 construct: also called hRAGE V-domain-Fc; hRAGE-V-Fc (CM); not shown: Fc domain of human IgG
Nature of the experiment: direct binding ELISA, coated hRAGE V-region-Fc. The protocol:
Antibodies were purified from hybridoma supernatants using standard procedures. Purified antibodies were evaluated for binding to soluble forms of RAGE with the use of ELISA. […] After washing and blocking with PBS containing 1% BSA and 0.05% Tween-20, 100 ul of sample (samples were in several forms: diluted immune serum, hybridoma supernatants, or purified antibodies, as indicated) was added and incubated for 1 hour at room temperature. The plates were washed with PBS, pH 7.2 and bound anti-RAGE antibodies were detected with the use of peroxidase-conjugated goat, anti-mouse IgG (H+L) (IgG) (Pierce, Rockford, Ill.) followed by incubation with the substrate TMB (BioFX Laboratories Owings Mills, Md. Laboratories). Absorbance values were determined at 450 nm in a spectrophotometer. The concentrations of monoclonal antibodies were determined with the use of peroxidase-labeled goat, anti-mouse IgG (Fcγ) (Pierce Rockford, Ill.) and a standard curve was generated by a purified, isotype-matched mouse IgG.

A further experiment addresses T3, human RAGE, full length (human, UniProt Q15109 23-404).
T3 construct: Expressed on 293 or CHO cells, or endogenous in human lung sections; also called hRAGE; cell-surface hRAGE
The experiment is described as follows: cell-based ELISA, 293 cells transfected with human RAGE. As to the method:
(§1) Human embryonic kidney 293 cells (American Tissue Type Culture, Manassas, Va.) cells were plated at 5×10⁶ cells per 10 cm² tissue culture plate and cultured overnight at 37° C. The next day cells were transfected with RAGE expression plasmids (pAdori1-3 vector encoding mouse, human, baboon, cynomologus monkey or rabbit RAGE) using LF2000 reagent (Invitrogen, Carlsbad Calif.) at a 4:1 ratio of reagent to plasmid DNA using the manufacturers protocol. Cells were harvested 48 hrs post-transfection using trypsin, washed once with phosphate buffered saline (PBS), then suspended in growth media without serum at a concentration of 2×10⁶ cells/ml.
(§2) Primary antibodies at 1 μg/ml were serially diluted at 1:2 or 1:3 in PBS containing 1% bovine serum albumin (BSA) in a 96-well plate. RAGE-transfected 293 cells or control parental 293 cells (50 μl) at 2×10⁶ cells/ml in serum-free growth medium were added to U-bottom 96 well plate for a final concentration of 1×10⁵ cells/well. The cells were centrifuged at 1600 rpm for 2 minutes. The supernatants were gently discarded by hand with a one-time swing and the plate was patted gently to loose the cell pellet. […] The cells were centrifuged and the supernatants are transferred to a fresh plate and read at 450 nm (Soft MAX pro 4.0, Molecular Devices Corporation, Sunnyvale, Calif.).

Another experiment concerns the target T4, baboon RAGE (baboon (Papio cyanocephalus), UniProt Q15109 23-404 (human entry)).
T4 construct: On transfected 293 cells or endogenous in baboon lung sections; also called 293-baboon RAGE; RAGE in baboon lung
T4 chain: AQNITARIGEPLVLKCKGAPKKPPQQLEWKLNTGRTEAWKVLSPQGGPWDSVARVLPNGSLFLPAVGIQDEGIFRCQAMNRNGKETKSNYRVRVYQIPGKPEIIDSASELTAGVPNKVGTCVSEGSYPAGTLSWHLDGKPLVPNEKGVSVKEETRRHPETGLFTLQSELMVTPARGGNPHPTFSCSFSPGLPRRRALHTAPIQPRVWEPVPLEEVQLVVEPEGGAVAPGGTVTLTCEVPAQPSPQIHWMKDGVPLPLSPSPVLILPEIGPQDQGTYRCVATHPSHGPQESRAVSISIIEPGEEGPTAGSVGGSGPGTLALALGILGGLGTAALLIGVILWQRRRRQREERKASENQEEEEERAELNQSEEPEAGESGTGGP
The experiment is described as follows: cell-based ELISA, 293 cells transfected with baboon RAGE. As to the method: as §1, §2

B1: XT-M4 (antibody, rat IgG2b, V domains shown)
VH: EVQLVESGGGLVQPGRSLKLSCVVSGFTFNNYWMTWIRQTPGKGLEWVASINNSGDNTYYPDSVKDRFTISRDNAKSTLYLQMNSLRSEDTATYYCTRGGDITTGFDYWGQGVMVTVSS
VL: DIQMTQSPSSMSVSLGDTITITCRASQDVGIYVNWFQQKPGKSPRRMIYRATNLADGVPSRFSGSRSGSIYSLTISSLESEDVADYHCLEFDEHPLTFGSGTKVEIK
notes: also called 1mRAGEP3/10; rat XT-M4
Consider B1, for which the Ka in experiment [1] worked out at 1e+09 M⁻¹. Moreover, in experiment [1], the Kd amounted to 0.995 nM. This molecule also yielded a koff in experiment [1] of 0.00116 s⁻¹. Further, the kon in experiment [1] was 1.16e+06 M⁻¹ s⁻¹. In addition, the “IC50 (read off the curve)” value is roughly 0.1 µg/mL in experiment [2] and roughly 0.2 µg/mL in experiment [3]. Moreover, the EC50 is 0.1 nM in experiment [4]; roughly 0.84 nM with human RAGE, full length; roughly 1.33 nM with baboon RAGE.

For the origin of these results see patent publication US20070286858A1 (Pfizer, published 2007).
